Measured values published in paper PMC9352680, “A comprehensive thermodynamic model for RNA binding by the Saccharomyces cerevisiae Pumilio protein PUF4”.

T1: PUF4 RNA-binding domain (Saccharomyces cerevisiae, UniProt P25339 537-888)
T1 sequence: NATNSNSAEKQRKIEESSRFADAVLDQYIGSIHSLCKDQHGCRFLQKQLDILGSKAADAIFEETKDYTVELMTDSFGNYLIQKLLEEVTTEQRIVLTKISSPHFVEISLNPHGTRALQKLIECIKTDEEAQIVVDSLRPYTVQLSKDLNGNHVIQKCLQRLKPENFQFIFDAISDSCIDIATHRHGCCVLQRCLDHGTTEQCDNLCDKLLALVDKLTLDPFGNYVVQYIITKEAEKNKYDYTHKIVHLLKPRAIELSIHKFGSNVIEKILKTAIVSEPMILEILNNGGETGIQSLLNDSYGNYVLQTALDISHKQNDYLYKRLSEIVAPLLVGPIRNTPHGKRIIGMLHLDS

B1: Id_ii_S1_P3E.2_K3.1_C3.2_[C-2T]_H3.1_A3.1_F3.1_T3.2_[A10T] (ssRNA)
RNA: UCUCUUUUUGUAUAUAUUUCUCUU
B2: Id_ii_S1_P3E.2_K3.1_C3.2_[C-2T]_H3.1_A3.1_F3.1_T3.2_[A10C] (ssRNA)
RNA: UCUCUUUUUGUAUAUAUCUCUCUU
B3: Id_ii_S1_P3E.2_K3.1_C3.2_[C-2T]_H3.1_A3.1_F3.1_T3.2_[T9A]_[A10T] (ssRNA)
RNA: UCUCUUUUUGUAUAUAAUUCUCUU
B4: Id_ii_S1_P3E.2_K3.1_C3.2_[C-2A]_[T-1G]_H3.1_A3.1_F3.1_T3.2_[T9A]_[A10T] (ssRNA)
RNA: UCUCUUAGUGUAUAUAAUUCUCUU
B5: Id_ii_S1_P3E.2_K3.1_C3.2_[C-2T]_H3.1_A3.1_F3.1_T3.2_[T9G]_[A10C] (ssRNA)
RNA: UCUCUUUUUGUAUAUAGCUCUCUU
B6: Ib_S1_P4E.1_K4.1_C4.1_H4.1_[T1A]_[A4G]_A4.1_F4.1_T4.1 (ssRNA)
RNA: UCUCUUAGUGUAUUAUCUCUU
B7: Id_ii_S1_P3E.2_K3.1_C3.2_[C-2T]_[T-1C]_H3.1_A3.1_F3.1_T3.2_[T9C] (ssRNA)
RNA: UCUCUUUCUGUAUAUACAUCUCUU
B8: Id_ii_S1_P3E.2_K3.1_C3.2_[C-2T]_[T-1C]_H3.1_A3.1_F3.1_T3.2_[T9C]_[A10T] (ssRNA)
RNA: UCUCUUUCUGUAUAUACUUCUCUU
B9: Id_ii_S1_P3E.2_K3.1_C3.2_[C-2G]_H3.1_A3.1_F3.1_T3.2_[T9A] (ssRNA)
RNA: UCUCUUGUUGUAUAUAAAUCUCUU
B10: Id_ii_S1_P3E.2_K3.1_C3.2_[C-2T]_H3.1_A3.1_F3.1_T3.2_[T9A]_[A10G] (ssRNA)
RNA: UCUCUUUUUGUAUAUAAGUCUCUU
B11: Id_ii_S1_P3E.2_K3.1_C3.2_[C-2G]_H3.1_A3.1_F3.1_T3.2_[A10C] (ssRNA)
RNA: UCUCUUGUUGUAUAUAUCUCUCUU
B12: Id_ii_S1_P3E.2_K3.1_C3.2_[C-2T]_[T-1G]_H3.1_A3.1_F3.1_T3.2_[A10T] (ssRNA)
RNA: UCUCUUUGUGUAUAUAUUUCUCUU
B13: Id_ii_S1_P3E.2_K3.1_C3.2_[C-2T]_[T-1A]_H3.1_A3.1_F3.1_T3.2_[A10G] (ssRNA)
RNA: UCUCUUUAUGUAUAUAUGUCUCUU
B14: Id_ii_S1_P3E.2_K3.1_C3.2_[C-2T]_[T-1G]_H3.1_A3.1_F3.1_T3.2_[T9C]_[A10C] (ssRNA)
RNA: UCUCUUUGUGUAUAUACCUCUCUU
B15: Id_ii_S1_P3E.2_K3.1_C3.2_[C-2T]_[T-1C]_H3.1_A3.1_F3.1_T3.2_[T9A]_[A10G] (ssRNA)
RNA: UCUCUUUCUGUAUAUAAGUCUCUU
B16: Id_ii_S1_P3E.2_K3.1_C3.2_[C-2A]_[T-1C]_H3.1_A3.1_F3.1_T3.2_[T9C]_[A10C] (ssRNA)
RNA: UCUCUUACUGUAUAUACCUCUCUU
B17: Id_ii_S1_P3E.2_K3.1_C3.2_[C-2T]_[T-1C]_H3.1_A3.1_F3.1_T3.2_[T9G]_[A10T] (ssRNA)
RNA: UCUCUUUCUGUAUAUAGUUCUCUU
B18: Id_ii_S1_P3E.2_K3.1_C3.2_[C-2T]_H3.1_A3.1_F3.1_T3.2 (ssRNA)
RNA: UCUCUUUUUGUAUAUAUAUCUCUU
B19: Ib_S1_P4E.1_K4.1_C4.1_H4.1_[T1A]_[A4T]_A4.1_F4.1_T4.1 (ssRNA)
RNA: UCUCUUAGUUUAUUAUCUCUU
B20: Id_ii_S1_P3E.2_K3.1_C3.2_[C-2T]_[T-1G]_H3.1_A3.1_F3.1_T3.2_[A10C] (ssRNA)
RNA: UCUCUUUGUGUAUAUAUCUCUCUU
B21: Id_ii_S1_P3E.2_K3.1_C3.2_[C-2G]_H3.1_A3.1_F3.1_T3.2_[T9G]_[A10T] (ssRNA)
RNA: UCUCUUGUUGUAUAUAGUUCUCUU
B22: Id_ii_S1_P3E.2_K3.1_C3.2_[C-2G]_[T-1C]_H3.1_A3.1_F3.1_T3.2_[A10T] (ssRNA)
RNA: UCUCUUGCUGUAUAUAUUUCUCUU
B23: Ib_S1_P4E.1_K4.1_C4.1_H4.1_[G2C]_[A4G]_A4.1_F4.1_T4.1 (ssRNA)
RNA: UCUCUUUCUGUAUUAUCUCUU
B24: Ib_S1_P4E.1_K4.1_C4.1_H4.1_[G2C]_[A4C]_A4.1_F4.1_T4.1 (ssRNA)
RNA: UCUCUUUCUCUAUUAUCUCUU
B25: Id_ii_S1_P3E.2_K3.1_C3.2_[C-2A]_[T-1G]_H3.1_A3.1_F3.1_T3.2_[A10T] (ssRNA)
RNA: UCUCUUAGUGUAUAUAUUUCUCUU
B26: Id_ii_S1_P3E.2_K3.1_C3.2_[C-2G]_H3.1_A3.1_F3.1_T3.2_[A10G] (ssRNA)
RNA: UCUCUUGUUGUAUAUAUGUCUCUU
B27: Id_ii_S1_P3E.2_K3.1_C3.2_[C-2T]_H3.1_A3.1_F3.1_T3.2_[T9A]_[A10C] (ssRNA)
RNA: UCUCUUUUUGUAUAUAACUCUCUU
B28: Id_ii_S1_P3E.2_K3.1_C3.2_[C-2A]_[T-1G]_H3.1_A3.1_F3.1_T3.2_[T9A] (ssRNA)
RNA: UCUCUUAGUGUAUAUAAAUCUCUU
B29: Id_ii_S1_P3E.2_K3.1_C3.2_[C-2T]_[T-1C]_H3.1_A3.1_F3.1_T3.2_[T9A] (ssRNA)
RNA: UCUCUUUCUGUAUAUAAAUCUCUU
B30: Id_ii_S1_P3E.2_K3.1_C3.2_[C-2T]_[T-1C]_H3.1_A3.1_F3.1_T3.2_[T9C]_[A10G] (ssRNA)
RNA: UCUCUUUCUGUAUAUACGUCUCUU
B31: Id_ii_S1_P3E.2_K3.1_C3.2_[C-2T]_[T-1A]_H3.1_A3.1_F3.1_T3.2_[T9G]_[A10T] (ssRNA)
RNA: UCUCUUUAUGUAUAUAGUUCUCUU
B32: Id_ii_S1_P3E.2_K3.1_C3.2_[C-2A]_[T-1C]_H3.1_A3.1_F3.1_T3.2_[T9C]_[A10G] (ssRNA)
RNA: UCUCUUACUGUAUAUACGUCUCUU

Target: T1, PUF4 RNA-binding domain
Test: Mg; RNA-MaP; 20 mM Na-HEPES pH 7.4, 30 mM KOAc, 0.75 mM MgCl2, 0.1% Tween-20, 5% glycerol, 0.1 mg/mL BSA, 2 mM DTT; 25 C; 0.0125-409.6 nM protein
Conditions: tags: N-His6-TEV cleaved; C-SNAP kept, Cy3B-labelled; label: tethered on chip by stalled RNA polymerase

Binder | Kd
B1 | 6.67 nM
B2 | 7.26 nM
B3 | 8.27 nM
B4 | 10.1 nM
B5 | 5.32 nM
B6 | 64 nM
B7 | 23 nM
B8 | 9.31 nM
B9 | 8.84 nM
B10 | 11.6 nM
B11 | 8.36 nM
B12 | 8.9 nM
B13 | 9.53 nM
B14 | 23.4 nM
B15 | 6.84 nM
B16 | 11.9 nM

Binder | Kd
B17 | 3.7 nM
B18 | 4.57 nM
B19 | > 2300 nM
B20 | 7.14 nM
B21 | 4.57 nM
B22 | 12.9 nM
B23 | 25.1 nM
B24 | > 2300 nM
B25 | 10 nM
B26 | 8.99 nM
B27 | 9.6 nM
B28 | 14.1 nM
B29 | 8.49 nM
B30 | 17.9 nM
B31 | 6.42 nM
B32 | 45.4 nM
